Test system: Bacillus subtilis DB104 (SP-AmyQ fusion secretion)
Assay: AmyQ secretion efficiency, weighted average sort bin (1 = best secretion, 10 = worst) (bin number (weighted average, 1-10)); higher = lower secretion efficiency
Outline: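 In this assay, the secretion score is defined as the average bin number weighted by read frequency, normalised to beads per bin, with low-abundance sequences not counted. B. subtilis DB104 cells expressing mature AmyQ behind designed signal peptides (amyE-integrated) were enclosed with fluorescein-starch in ~65 nL alginate beads at about 0.3 cells per bead. Beads grew about 13 h at room temperature, were stained with nile red, and occupied beads went into 10 equally populated green/red fluorescence ratio bins by large-particle flow cytometry, whose amplicons were Illumina-sequenced.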

| Sequence | AmyQ secretion efficiency |
| --- | --- |
| MRMLWRSLALCGLALTLAPCAQAAKK | 2.93 |
| MRKKTKNRLISSVLFMVVIMILLFSPGAAGASSK | 1.52 |
| MKTLRTLCVLMILSGVIFFGLKIDCKDI | 5.37 |
| MKSCKQLIVCSLAAILLLIPSVSFAADD | 2.66 |
| MRMLWRSLALCGLALTLAPCAQAAPK | 2.07 |
| MRHKIITFILAVVVIIIIRKRKKRRGGSEATSK | 4.98 |
| MLCVMMLLFSAIASFPVSAQYKDQ | 6.57 |
| MKKWMITIAMTMLILAGIALFVFISPLKSHKT | 1.1 |
| MKKKRRRVLMAFIICLSLILSVLAAPPSGAKAESV | 2 |
| MHLIRAAGAVCLARFNEDQHQAEGENT | 8.19 |
| MKRSISIFITCLLITLLTMGGMIASPASAEDE | 2.08 |
| MHLIRAAGAVCLAVVLIAGCRFNEDQHQGEGENT | 6.63 |
| MKKVLMAFIICLSLILSVLAAPPSGIKAESV | 3.36 |
| MKRFLIGAGVAAVILDDEEEADHQTHSQEM | 7.2 |
| MRSYIKVLTMCFLGLILFVPTKDEPALADNS | 2.48 |
| MTKLKMLSMLTVMIASLFIFSSQALGVQY | 3.68 |
| MKKRFFGPIILAFILFTASTAFTAIAGAIAIPS | 4.73 |
| MKRLLILLLIIIMLLGGTTFAPSAFAKQD | 2 |
| MKWMCSICCAAVLLAGGASFFGTFGPGTTAQAEAV | 4.06 |
| MKRRRRPMRLALGAALTIAPLSFASAEEN | 5.86 |
| MKKRKCLLFLTTIALILSLSTNAFAKNT | 1.8 |
| MKVKRKRLLLLLFAFEPSASGKKL | 7.56 |
| MKVLLSALLLLLFARKKKKRASGKKL | 6.15 |
| MKRLFMKASLVLFAVVFVFAVKGAPMKAETH | 1.95 |

| Sequence | AmyQ secretion efficiency |
| --- | --- |
| MFNRLFRVCFLAALIMAFTLPNSVYCQKP | 4.33 |
| MIVIMSFNLIILLFISIIVFLSVIQPQPS | 6.9 |
| MKSCKQLIVCSLAAILLLLSLTFIPSVSFAADS | 3.91 |
| MLKKIALTLCPAIVGSLLFFTAGASAHVS | 3.12 |
| MRKKKWRVGLLAGCLAAGGFSYNAFATEN | 5.68 |
| MKLAKRVSALTPSTTLAITAKAAPD | 7.89 |
| MKLKKRVSMFLVALTMCGGLFVRRRKRAKAVKT | 6.98 |
| MRKNRILALFVLSLGLLFSFMVTPVSAASK | 1.99 |
| MRMLWRSLALCGLALTLAPCAQAATP | 2.06 |
| MGMKKKLSLGVASAALGLALVGGGTWFAFN | 7.33 |
| MRNLTKTSLLLAGLCTAAQMVFVTHSSAEES | 4.02 |
| MLCVMMLLFSAIASFPVSASATAQAKDQ | 5.05 |
| MGTTIIILLLAVIIAAAAAGVAFYV | 7.47 |
| MKKKIRRKKKKSAVVGSSMAAAPAEAKTI | 7.24 |
| MNKPTKLFSTLALAAGMTLIAAAAGGAGTIHAQQP | 1.83 |
| MRKTIFAFLTGLMMFGTITAMSASPD | 5.39 |
| MAIIIAIIAAVIVIAALITFNVGNASPG | 5.7 |
| MLTFLWMVGLLAGCLAAGGFSYNAFATEN | 7.84 |
| MKNMSCKLVVSVTLFFSFLTIGPLAHPQNS | 5.55 |
| MNKKYQTGQVCIIFTSALFPTFSSVTAAQG | 3.64 |
| MKKLTLAFLVFLSVVLVTTVFLVKQQESVAQAKQL | 3.11 |
| MKLAKRVSALTPSTTLAITAKAAPK | 7.94 |
| MGRFLIGAGVAAVILSGWFIADHQTHSQEM | 6.17 |
